Biological target: heparan sulfate proteoglycan (HSPG) on HeLa cells
Assay: cell-based or functional assay

B1: CT-59 (antibody, part only; not given: TMab4 heavy chain variable domain, V domains shown, part only)
VL: DIQMTQSPSSLSASVGDRVTITCKSSQSLLNSRDGKNYLAWYQQKPGKAPKLLIYWASTRESGVPSRFSGSGSGTDFTLTISSLQPEDFATYFCQQYWYWMYTFGQGTKVEIKR
Alexa488 fluorescence intensity in HeLa cells (confocal microscopy, 1 µM, 6 h): 20%

From patent publication US20200339681A1
